From patent publication US20150284762, “METHOD FOR PRODUCING PROTEIN-NUCLEIC ACID CONJUGATE, AND METHOD FOR DETECTING TARGET SUBSTANCE” (KYUSHU UNIVERSITY, NATIONAL UNIVERSITY CORPORATION, published 2015)

molecular target: thrombin (UniProt P00734;P00734 P00734:328-363,P00734:364-622); assay: ELONA

Binding result, binds:
GGTTGGTGTGGTTGGTTTTTTTTTTTTTTT (ssDNA) [FITC-thrombin DNA aptamer with T15 linker (30 mer)]
GGTTGGTGTGGTTGGTTTTTTTTTTTTTTT (ssDNA, 3' single Z-QG-ddUTP crosslinked to NK14-BAP) [(BAP)-aptamer, single label]
GGTTGGTGTGGTTGGTTTTTTTTTTTTTTT (ssDNA, 3' single Z-QG-(PEG)3-ddUTP crosslinked to NK14-BAP) [(BAP)-(PEG)3-aptamer, single label]
